Results taken from PMC4582940.

What was measured:
[1] = target: c-Met recombinant chimera (R&D Systems) (UniProt P08581); test: SPR; c-Met chimera amine-coupled to a CM5 chip (200-1000 RU), Biacore 2000, 25 °C, HBS-EP pH 7.4, 5 uL/min; CSF diluted 1:1 in PBS flowed over; samples: septic nosocomial meningitis (n = 33)
[2] = target: c-Met recombinant chimera (R&D Systems) (UniProt P08581); test: SPR; c-Met chimera amine-coupled to a CM5 chip (200-1000 RU), Biacore 2000, 25 °C, HBS-EP pH 7.4, 5 uL/min; CSF diluted 1:1 in PBS flowed over; samples: septic community-acquired meningitis (n = 22)

UniProt P08581, sequence (P08581 25-932, change not shown): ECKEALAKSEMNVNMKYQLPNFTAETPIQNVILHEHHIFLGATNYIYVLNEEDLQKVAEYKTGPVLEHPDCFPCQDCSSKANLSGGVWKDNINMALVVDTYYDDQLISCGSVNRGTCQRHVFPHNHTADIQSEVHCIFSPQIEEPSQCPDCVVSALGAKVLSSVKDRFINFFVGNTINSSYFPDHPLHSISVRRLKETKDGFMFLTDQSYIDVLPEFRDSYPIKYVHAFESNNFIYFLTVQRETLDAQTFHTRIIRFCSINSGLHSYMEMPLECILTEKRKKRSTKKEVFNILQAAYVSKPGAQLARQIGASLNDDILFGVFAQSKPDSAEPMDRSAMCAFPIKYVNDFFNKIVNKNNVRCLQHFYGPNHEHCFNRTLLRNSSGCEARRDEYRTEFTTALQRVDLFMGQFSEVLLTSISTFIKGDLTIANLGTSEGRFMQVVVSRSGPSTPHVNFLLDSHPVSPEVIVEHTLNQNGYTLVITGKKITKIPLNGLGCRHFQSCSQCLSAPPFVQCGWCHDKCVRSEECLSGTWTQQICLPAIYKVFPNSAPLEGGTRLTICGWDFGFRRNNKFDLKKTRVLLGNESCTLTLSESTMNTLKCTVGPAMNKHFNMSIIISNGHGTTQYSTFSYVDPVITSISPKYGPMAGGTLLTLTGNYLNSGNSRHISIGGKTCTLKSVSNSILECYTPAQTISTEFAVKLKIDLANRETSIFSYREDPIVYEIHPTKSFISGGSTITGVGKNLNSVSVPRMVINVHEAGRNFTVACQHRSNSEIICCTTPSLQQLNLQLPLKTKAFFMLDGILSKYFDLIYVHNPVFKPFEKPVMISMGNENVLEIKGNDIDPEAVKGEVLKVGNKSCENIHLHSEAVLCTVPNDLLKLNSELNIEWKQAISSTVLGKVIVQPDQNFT

In the case of “Hepatocyte growth factor (CSF-derived) (ligand)”, the C-Met binding (RU), median of the group [1] is reported as 27.3 RU and the C-Met binding (RU), median of the group [2] is reported as 56 RU.
